The record followed here is US20160041182A1 (Janssen / Centocor, published 2016).

Changes are numbered by the printed parent chain.

The labels stand for the following.
B1: TP1KR9P61-G4 (designed binder)
chain: MLPAPKNLVVSRVTEDSARLSWTAPDAAFDSFAIEYFEDWWSGEAIVLTVPGSERSYDLTGLKPGTEYAVSIRGVKGGYPSAPLSAIFTT
notes: also called TCL14-His fusion protein
B2: TP1KR9P61-A7 (designed binder)
chain: B1 chain with A69S, A82S
notes: as for B1
B3: TP1KR9P61-A2 (designed binder)
chain: B1 chain with Y79M
notes: as for B1
B4: TP1KR9P62-C6 (designed binder)
chain: B1 chain with Y57C, A69S, S71T, A82S
notes: as for B1
B5: TP1KR9P62-E3 (designed binder)
chain: B1 chain with A33G, W40Y, S42T
notes: as for B1
B6: TP1KR9P62-D4 (designed binder)
chain: B1 chain with A33G, E35I, S42A, A69G, Y79P, A82R
notes: as for B1
B7: TP1KR9P61-E2 (designed binder)
chain: B1 chain with Y79M, A82P
notes: as for B1
B8: TP1KR9P62-D8 (designed binder)
chain: B1 chain with A69G, Y79L, P80A, A82P
notes: as for B1
B9: TP1KR9P62-A2 (designed binder)
chain: B1 chain with P5L, R19H, F37S, W40Y, S42L, A69G, A82P
notes: as for B1
B10: TP1KR9P62-C3 (designed binder)
chain: B1 chain with A69S, S71T, Y79P, A82S
notes: as for B1
B11: TP1KR9P62-H10 (designed binder)
chain: B1 chain with A69S, Y79H, A82V
notes: as for B1
B12: TP1KR9P62-D3 (designed binder)
chain: MLPAPKNLVVSRVTEDSARLSWTAPDAAFDSFAIEYFEDWWSGEAIVLTVPGSERSYDLTLKPGTEYSVSIRGVKGGYPSSPLSAIFTT
notes: as for B1

For the first experiment, the target named is T1, mouse IL-17A (mouse, UniProt Q62386 26-158, limits assumed).
T1 construct: In SPR it was injected in solution, and no biotinylation is mentioned there; also called mIL-17A; mIL17A
T1 sequence (looked up): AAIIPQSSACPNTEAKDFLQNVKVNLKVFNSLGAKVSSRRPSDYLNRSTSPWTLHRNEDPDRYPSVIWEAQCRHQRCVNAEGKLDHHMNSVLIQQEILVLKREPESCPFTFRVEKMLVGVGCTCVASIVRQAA
Nature of the experiment: SPR (ProteOn XPR-36), clone amine-coupled on chip, mIL-17A in solution, 1:1 Langmuir fit. How it is done: The affinities of select molecules binding to mIL-17A were measured using surface Plasmon resonance using a ProteOn XPR-36 instrument (Bio-Rad). Purified molecules were directly immobilized on the chip via amine coupling with varying densities (100˜300 Rus) at pH 5.0 and a flow rate of 30 μL/min for 5 minutes mIL-17A at 100 nM diluted in a 3-fold concentration series was tested for their binding to different molecules on the chip surface. The dissociation phases for all concentrations of all samples was monitored for 1˜2 hours at a flow rate of 100 μL/min depending on their off-rate. A buffer sample was injected to monitor the baseline stability and the surface was not regenerated for further use. The response data for all concentration series for each of the different surfaces of the scaffold molecules selected from the TLC14 library were globally fit to a 1:1 simple langmuir binding model to extract estimates of the kinetic (kₒₙ, koff) and affinity (KD) constants. As summarized in Table 9, affinities of the scaffold molecules specifically binding mIL-17A were at a subnanomolar range. Sequences of select mIL-17A binders are shown in SEQ ID NOS: 85-96, and the sequences of the C and F beta-strands and the CD and the FG loops in Table 10.
As to B1, the Kd is 0.309 nM, the off-rate constant (koff) stood at 5.02e-05 s⁻¹ and the kon amounted to 162000 M⁻¹ s⁻¹.
The corresponding values for B2 are 0.421 nM, 3.46e-05 s⁻¹ and 82000 M⁻¹ s⁻¹.
In the same order, the values of B3 are 0.287 nM, 3.93e-05 s⁻¹ and 137000 M⁻¹ s⁻¹.
On to B4, for which the affinity, expressed as Kd, was 0.0212 nM; the koff worked out at 1.2e-05 s⁻¹; the kon amounted to 568000 M⁻¹ s⁻¹.
Turning to B5, binding was put at a Kd of 0.464 nM, the koff came out at 5.26e-05 s⁻¹ and the kon was found to be 113000 M⁻¹ s⁻¹.
As for B6, the Kd is ≤ 0.0952 nM, the koff is ≤ 1e-05 s⁻¹ and the kon was determined as 105000 M⁻¹ s⁻¹.
In the same order, the values of B7 are 0.27 nM, 3.96e-05 s⁻¹ and 147000 M⁻¹ s⁻¹.
The corresponding values for B8 are 0.0389 nM, 1.48e-05 s⁻¹ and 381000 M⁻¹ s⁻¹.
In the same order, the values of B9 are 0.0531 nM, 2.17e-05 s⁻¹ and 408000 M⁻¹ s⁻¹.
In turn, B10 displayed a Kd of 0.0374 nM, a dissociation rate constant (koff) of 1.05e-05 s⁻¹ and an on-rate constant (kon) of 281000 M⁻¹ s⁻¹.
In the same order, the values of B11 are 0.0482 nM, 2.11e-05 s⁻¹ and 438000 M⁻¹ s⁻¹.
The molecule B12 yielded a Kd of 0.554 nM, a koff of 6.07e-05 s⁻¹ and a kon of 110000 M⁻¹ s⁻¹.

A further experiment addresses T1, mouse IL-17A. As to the kind of experiment: competition ELISA: purified His-tagged clone against biotinylated mIL-17A binding to coated mIL-17A receptor Fc. How it is done:
An inhibition assay was performed to determine if the round 5 and 9 panning outputs against mouse IL-17A (mIL-17A) inhibited binding of mIL-17A to the mIL-17A receptor. Maxisorp plates were coated with 0.2 μg/ml mIL-17A receptor Fc fusion (R&D Systems, Minneapolis, Minn.) overnight, washed with Phosphate-Buffered Saline (PBS), pH 7.4 with 0.05% Tween-20 […] and blocked with 2% BSA, 5% Sucrose in PBS. 10 ng/ml biotinylated-mIL17A (b-mIL-17A) was added into the clarified bacterial lysates diluted 1:50 in 1% BSA in PBS, and the mixtures were incubated for 20 minutes. The blocked plates were washed and the bacterial lysates/b-mIL-17A incubations were transferred onto the plates. The plates were incubated for an additional hour, washed with PB ST, and the biotinylated protein detected with streptavidin-HRP (Jackson Immunoresearch, West Grove, Pa.) and OPD colorimetric substrate (Sigma-Aldrich, St. Louis, Mo.). Absorbance at 490 nm was read using an M5 plate reader (Molecular Devices, Sunnyvale, Calif.) and the data converted to % inhibition. Percent inhibition for mIL-17A:mIL-17 receptor binding was defined as 100−(sample/negative control×100).
Select bacterial lysates containing the scaffold molecules inhibiting the mIL-17A:mIL-17 receptor interaction were further characterized in a dose response inhibition assay using the protocol described above, except that 100 μl of purified TCL14-His (Ni-NTA) fusion proteins were used in the assays between concentrations of 10 μM to 56 pM. IC50 values were calculated from the dose response curves using a sigmoidal dose response fit.
B1: the concentration for half-maximal inhibition (IC50) was 0.00883 nM. That is a picomolar value.
Regarding B2, the 50% inhibitory concentration (IC50) is 0.0558 nM. This IC50 lies about 6.3-fold higher than the previous one.
Consider B3, for which the IC50 was found to be 0.0339 nM.
Same read-out and setting: under B4 stands 0.109 nM; under B5, 0.0642 nM; under B6, 0.242 nM.
The same measure, in the same setting: under B7 stands 0.0428 nM; under B8, 0.427 nM.
The molecule B9 gave an IC50 of 0.261 nM.
In the case of B10, the half-maximal inhibitory concentration (IC50) is 0.117 nM.
Molecule B11 yielded an IC50 of 0.302 nM. This IC50 is about 2.6-fold higher than that of the molecule before.
Same read-out and setting: the figure for B12 is 0.0912 nM.
